Measurements taken from US20030105292A1.
One block for each molecule: values may come before it.

How the values were obtained:
G protein Gi [1] = target: G protein Gi
G protein Gi [2] = target: G protein Gi; remark: listed apart in the source
Gs protein [3] = target: Gs protein
Gs protein [4] = target: Gs protein; remark: listed apart in the source

Molecule: non-endogenous, constitutively activated GPR17 (V234K) (receptor)
luciferase, 8xCRE-Luc reporter in 293 cells co-transfected with GPR3; Per-Cent Difference of the non-endogenous against the endogenous GPCR (G protein Gi [1]): 74.5%

Molecule: non-endogenous, constitutively active GPR30 (L258K) (receptor)
luciferase, CRE-Luc reporter in 293 cells co-transfected with GPR6; Per-Cent Difference of the non-endogenous against the endogenous GPCR (G protein Gi [1]): 71.6%

Molecule: endogenous human GPR30 (receptor)
luciferase, CRE-Luc reporter in 293 cells co-transfected with GPR6 at a 1:4 ratio (relative light units) (G protein Gi [2]): 104

Molecule: non-endogenous human ETBR-LP2 (N358K) (receptor)
luciferase, AP1 reporter assay in 293T cells; Per-Cent Difference of the non-endogenous against the endogenous GPCR (G protein Gq): 61.1% | luciferase, AP1 reporter assay in 293 cells; Per-Cent Difference of the non-endogenous against the endogenous GPCR (G protein Gq): 48.4%

B1: non-endogenous human APJ (L247K) (receptor)
chain: MEEGGDFDNYYGADNQSECEYTDWKSSGALIPAIYMLVFLLGTTGNGLVLWTVFRSSREKRRSADIFIASLAVADLTFVVTLPLWATYTYRDYDWPFGTFFCKLSSYLIFVNMYASVFCLTGLSFDRYLAIVRPVANARLRLRVSGAVATAVLWVLAALLAMPVMVLRTTGDLENTTKVQCYMDYSMVATVSSEWAWEVGLGVSSTTVGFVVPFTIMLTCYFFIAQTIAGHFRKERIEGLRKRRRLKSIIVVLVVTFALCWMPYHLVKTLYMLGSLLHWPCDFDLFLMNIFPYCTCISYVNSCLNPFLYAFFDPRFRQACTSMLCCGQSRCAGTSHSSSGEKSASYSSGHSQGPGPNMGKGGEQMHEKSIPYSQETLVVD
[35S]GTPgammaS binding to membranes expressing the receptor; Per-Cent Difference of the non-endogenous against the endogenous GPCR (G protein): 49%

More lines, now with the values ahead:

luciferase, CRE-Luc reporter in 293 cells (relative light units) (Gs protein [3]): 104
Molecule: endogenous, constitutively activated GPR6 (from UniProt P46095) (receptor)

luciferase, CREB reporter assay in 293T cells; Per-Cent Difference of the non-endogenous against the endogenous GPCR (Gs protein [4]): 35.6% | luciferase, CREB reporter assay in 293 cells; Per-Cent Difference of the non-endogenous against the endogenous GPCR (Gs protein [4]): 58.9%
B2: non-endogenous human GHSR (V262K) (receptor)
chain: MWNATPSEEPGFNLTLADLDWDASPGNDSLGDELLQLFPAPLLAGVTATCVALFVVGIAGNLLTMLVVSRFRELRTTTNLYLSSMAFSDLLIFLCMPLDLVRLWQYRPWNFGDLLCKLFQFVSESCTYATVLTITALSVERYFAICFPLRAKVVVTKGRVKLVIFVIWAVAFCSAGPIFVLVGVEHENGTDPWDTNECRPTEFAVRSGLLTVMVWVSSIFFFLPVFCLTVLYSLIGRKLWRRRRGDAVVGASLRDQNHKQTKKMLAVVVFAFILCWLPFHVGRYLFSKSFEPGSLEIAQISQYCNLVSFVLFYLSAAINPILYNIMSKKYRVAVFRLLGFEPFSQRKLSTLKDESSRAWTESSINT
